# In patent US20210154269A1:
# Assays:
# human CD47 (human) [1] = target: human CD47 (human) (UniProt Q08722); test: affinity for human CD47; method not stated
# human CD47 (human) [2] = target: human CD47 (human) (UniProt Q08722); test: in vitro receptor occupancy assay, at ~1 µM
# human CD47 (human) [3] = target: human CD47 (human) (UniProt Q08722); test: cell-based or functional assay
Substance,Kd (human CD47 (human) [1]) [nM],receptor occupancy (human CD47 (human) [2]) [%],"EC50, PathHunter SIRPα Signaling Bioassay (human CD47 (human) [3]) [µg/mL]",inhibition of SIRPα signaling at 1 nM (human CD47 (human) [3]) [%]
TTI-621 (from UniProt P78324 31-149) (Fc fusion),500,40,> 0.15,< 10
TTI-622 (from UniProt P78324 31-149) (Fc fusion),500,40,> 0.15,< 10
